# Assay results as given in PMC8273886, “Design of a Stable Cyclic Peptide Analgesic Derived from Sunflower Seeds that Targets the κ-Opioid Receptor for the Treatment of Chronic Abdominal Pain” (Journal of Medicinal Chemistry, 2021).
# Bridge positions count the residues as written; N and C are the ends. Square brackets hold non-standard residues; d marks the D form. dNle = CCCC[C@@H](N)C(=O)O
# B1: helianorphin-4 (peptide)
# peptide: cyclo(CTKSIPPICYGGFLRRI)
# modifications: disulfide 1-9 (inferred)
# notes: source: synthetic peptide (Fmoc chemistry, backbone cyclised, oxidised, RP-HPLC purified)
# B2: helianorphin-18 (peptide)
# peptide: cyclo(CTYGGFLRCRIRPKLK)
# modifications: disulfide 1-9 (inferred)
# notes: dyn A 1–13 divided into two fragments (YGGFLR and RIRPKLK) placed in the two loops of the SFTI-1 scaffold; source: synthetic peptide (Fmoc chemistry, backbone cyclised, oxidised, RP-HPLC purified)
# B3: helianorphin-2 (peptide)
# peptide: cyclo(CTKSIPPICYGGFLRRIRPKLK)
# modifications: disulfide 1-9 (inferred)
# notes: as for B1
# B4: helianorphin-19 (peptide)
# peptide: cyclo(CYGGFLRRCIRPKLK)
# modifications: disulfide 1-9 (inferred)
# notes: dyn A 1–13 divided into two fragments (YGGFLRR and IRPKLK) placed in the two loops of the SFTI-1 scaffold; source: synthetic peptide (Fmoc chemistry, backbone cyclised, oxidised, RP-HPLC purified)
# B5: helianorphin-3 (peptide)
# peptide: cyclo(CYGGFLRRICFPDGR)
# modifications: disulfide 1-10 (inferred)
# notes: as for B1
# B6: sunflower trypsin inhibitor-1 (SFTI-1) (peptide)
# peptide: cyclo(CTKSIPPICFPDGR)
# modifications: disulfide 1-9 (inferred)
# notes: SFTI-1, 14-residue cyclic peptide from the seeds of sunflower (Helianthus annuus); The methods say that all peptides were synthesised; source: synthetic peptide (Fmoc chemistry, backbone cyclised, oxidised, RP-HPLC purified)
# B7: helianorphin-11 (peptide)
# peptide: cyclo(CTASIPPIC[dF][dF][dL][dK]R)
# modifications: disulfide 1-9 (inferred)
# notes: as for B1
# B8: helianorphin-7 (peptide)
# peptide: cyclo(CTASIPPICYGGFLR)
# modifications: disulfide 1-9 (inferred)
# notes: SFTI-1 scaffold (K replaced with A) with YGGFL grafted after the second Cys; source: synthetic peptide (Fmoc chemistry, backbone cyclised, oxidised, RP-HPLC purified)
# B9: helianorphin-6 (peptide)
# peptide: cyclo(CTYGGFLRCFPDGR)
# modifications: disulfide 1-9 (inferred)
# notes: SFTI-1 scaffold with dyn A 1–6 (YGGFLR) grafted after CT; source: synthetic peptide (Fmoc chemistry, backbone cyclised, oxidised, RP-HPLC purified)
# B10: helianorphin-9 (peptide)
# peptide: cyclo(CTASIPPICYGGFR)
# modifications: disulfide 1-9 (inferred)
# notes: SFTI-1 scaffold (K replaced with A) with dyn A 1–4 (YGGF) grafted after the second Cys; source: synthetic peptide (Fmoc chemistry, backbone cyclised, oxidised, RP-HPLC purified)
# B11: helianorphin-8 (peptide)
# peptide: cyclo(CTYGGFPICFPDGR)
# modifications: disulfide 1-9 (inferred)
# notes: SFTI-1 scaffold with dyn A 1–4 (YGGF) grafted after CT; source: synthetic peptide (Fmoc chemistry, backbone cyclised, oxidised, RP-HPLC purified)
# B12: helianorphin-5 (peptide)
# peptide: cyclo(CYGGFLRICFPDGR)
# modifications: disulfide 1-9 (inferred)
# notes: SFTI-1 scaffold with dyn A 1–6 (YGGFLR) grafted after the first Cys; source: synthetic peptide (Fmoc chemistry, backbone cyclised, oxidised, RP-HPLC purified)
# B13: helianorphin-10 (peptide)
# peptide: cyclo(CT[dF][dF][dL][dK]PICFPDGR)
# modifications: disulfide 1-9 (inferred)
# notes: as for B1
# Target: T1, mouse κ-opioid receptor (KOR) tagged with EGFP (mouse, UniProt P33534 1-380)
# T1 construct: κ-opioid receptor, mouse; cloned into the pEGFP-N1 vector with BamHI and HindIII; read as EGFP at the receptor's C-terminus; also called mouse KOR; KOR-EGFP; source: HEK293, stably expressing (membrane preparations; whole cells for cAMP); HEK293, transiently transfected (BRET); not shown: EGFP, C-terminal, kept
# Assay: radioligand binding; concentration-dependent competition against 1 nM [3H]-diprenorphine on membranes (7 μg/assay) of HEK293 cells stably expressing the mouse KOR; 50 mM Tris–HCl pH 7.4, 10 mM MgCl2, 0.1% BSA; 1 h at 37 °C; Ki from IC50 by Cheng and Prusoff
# Conditions: one partner purified
row,Binder,Ki
1,B1,2500 nM
2,B2,650 nM
3,B3,97 nM
4,B4,21 nM
5,B5,3200 nM

# Target: T1, mouse κ-opioid receptor (KOR) tagged …
# Assay: radioligand binding; three concentrations of SFTI-1 (μM), displacement of 1 nM [3H]-diprenorphine on membranes of HEK293 cells stably expressing the mouse KOR
# Conditions: one partner purified
row,Binder,Ki
1,B6,> 30000 nM

# Target: T2, mouse δ-opioid receptor (DOR) (mouse, UniProt P32300 1-372)
# T2 construct: δ-opioid receptor, mouse; the construct is not described; source: HEK293, stably expressing, membrane preparations
# Assay: radioligand binding; competition against [3H]-diprenorphine on membranes of HEK293 cells stably expressing the mouse MOR (50 μg) or DOR (20 μg); 50 mM Tris–HCl pH 7.4, 10 mM MgCl2, 0.1% BSA; 1 h at 37 °C
# Conditions: one partner purified
row,Binder,Ki
1,B4,> 10000 nM

# Target: T3, mouse μ-opioid receptor (MOR) (mouse, UniProt P42866 1-398)
# T3 construct: μ-opioid receptor, mouse; the construct is not described; source: HEK293, stably expressing, membrane preparations
# Assay: as above
# Conditions: one partner purified
row,Binder,Ki
1,B4,> 10000 nM

# Target: T1, mouse κ-opioid receptor (KOR) tagged …
# Assay: cell-based or functional assay
# Conditions: not given
Binder,"cAMP inhibition in HEK293 cells stably expressing the mouse KOR, EC50","cAMP inhibition in HEK293 cells stably expressing the mouse KOR, Emax"
B1,4700 nM,87.8%
cyclo(CYGGFLRRIRPKLKCFPDGR) (disulfide 1-15 (inferred)) [helianorphin-1],–,106%
cyclo(CT[dF][dF][dNle][dR]PICFPDGR) (disulfide 1-9 (inferred)) [helianorphin-12],–,117%
B3,1300 nM,102%
B4,45 nM,108%
B5,1400 nM,85.1%

# Target: T1, mouse κ-opioid receptor (KOR) tagged …
# Assay: cell-based or functional assay
# Conditions: not given
# Remark: another data set of the same source
row,Binder,"β-arrestin-2 recruitment to the KOR (BRET, HEK293 cells with mouse KOR-EGFP and β-arrestin-2-nano-luciferase), EC50"
1,B4,1400 nM

# Target: T1, mouse κ-opioid receptor (KOR) tagged …
# Assay: radioligand binding; two-point displacement: 1 nM [3H]-diprenorphine with or without 10 μM or 100 nM peptide on membranes of HEK293 cells stably expressing the mouse KOR
# Conditions: one partner purified
row,Binder,Ki
1,B7,> 10000 nM
2,B8,> 10000 nM
3,B9,> 10000 nM
4,B10,> 10000 nM
5,B11,> 10000 nM
6,B12,> 10000 nM
7,cyclo(CTASIPPIC[dF][dF][dNle][dR]R) (disulfide 1-9 (inferred)) [helianorphin-13],> 10000 nM
8,B13,> 10000 nM
